Assay results: patent US20040082762A1 (Janssen / Centocor, published 2004)

B1: chimeric 12B4 (antibody, V domains shown)
VH: QVTLKESGPGILQPSQTLSLTCSFSGFSLSTNGMGVSWIRQPSGKGLEWLAHIYWDEDKRYNPSLKSRLTISKDTSNNQVFLKITNVDTADTATYYCARRRIIYDVEDYFDYWGQGTTLTVSS
VL: DVLMTQTPLSLPVSLGDQASISCRSSQNIVHSNGNTYLEWYLQKPGQSPKLLIYKVSNRFSGVPDRFSGSGSGTDFTLKISRVEAEDLGVYYCFQGSHVPLTFGAGTKLELK
notes: Murine 12B4 variable regions joined to human gamma 1 and C kappa constant regions (vectors pCMV-hγ1 and pCMV-hκ1), expressed in COS cells; also called chimeric 12B4 antibody
B2: murine 12B4 (antibody, V domains shown)
VH: B1 VH
VL: B1 VL
notes: Mouse monoclonal antibody of the IgG2a isotype; also called mAb 12B4; mouse 12B4

Target: T1, Aβ 1-42 peptide (human, UniProt P05067 672-713)
T1 construct: domain: Aβ 1-42; also called Aβ42
T1 sequence (P05067 672-713 limits assumed): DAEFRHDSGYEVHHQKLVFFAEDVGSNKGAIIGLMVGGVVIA
Assay: competitive ELISA on Aβ1-42; labelled antibody biotinylated murine 12B4

Binder | binding result
B1 | binds
B2 | binds
